Measurements as given in patent US12383631B2, “Immune antigen specific IL-18 immunocytokines and uses thereof” (Bright Peak Therapeutics AG, priority 2022, dated 2025).

Assays:
[1] = biological target: T1, human IL-18 binding protein isoform a (IL-18BPa) (Homo sapiens, UniProt O95998); assay: Cellular IL-18 Binding protein resistance assay in NK-92 cells (Example 13); format: cell-based; details: NK92 cells, IL-18 analyte 1 nM final, IL-18BPa titrated, 1 ng/ml IL-12; read-out: IC50 IL-18BP-mediated inhibition of IFNγ secretion
T1 sequence (O95998 31-194): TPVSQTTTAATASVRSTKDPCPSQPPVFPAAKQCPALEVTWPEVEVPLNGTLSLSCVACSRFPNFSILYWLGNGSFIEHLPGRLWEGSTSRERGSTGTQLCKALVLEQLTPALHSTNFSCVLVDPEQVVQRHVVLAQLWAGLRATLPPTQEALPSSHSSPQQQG
Experimental: The NK cell line NK-92 derived from a patient with lymphoma (ATCC, Cat #CRL-2407) was cultured in aMEM medium supplemented with 20% FCS-Glutamax, 25 μM B-mercaptoEthanol, and 100 IU/ml of recombinant Human Interleukin-2 (TL-2). On the day of experiment, cells were harvested and washed with aMEM medium without IL-2. After counting, cells were seeded at 100 000 cells/well in a 384 well titer plate and incubated at 37° C./5% CO2. Sixteen 2-fold serial dilutions of Fc fused human IL-18 binding protein isoform a (IL-18BPa; R&D systems, Cat #119-BP) were prepared in aMEM medium-1 ng/ml IL-12 containing 2 nM of each IL-18 variants and were added to the NK-92 cells. Final IL-18 analytes concentration was 1 nM and final IL-18BPa concentrations ranged from to 566 nM down to 17 pM.
After 16-20 h incubation at 37° C./5% CO2, 5 μl of supernatant were carefully transferred to a 384 microwells OPTIplate (Perkin Elmer; Cat #6007270) and Interferon-gamma (IFNγ) levels measured using the Human IFNγ AlphaLISA Assay Kit (Perkin Elmer, Cat #AL217C). […] AlphaLisa signal was then measured on an Enspire plate reader (Perkin Elmer) using 680 and 615 nm as excitation and emission wavelengths respectively. Half maximal inhibitory concentration (IC50) was calculated based on a variable slope, four parameter analysis using GraphPad PRISM software.

[2] = test system: PD-1 positive (transduced) KG-1 cells; assay: IFN gamma secretion assay in PD-1 transduced KG-1 cells (Example 11); format: cell-based, human; details: ratio of EC50 in PD-1 positive and parental KG-1 cells
Experimental: The KG-1 cell line was used to generate a PD-1 expressing cell line and furthermore, to measure IFNγ release upon incubation with TL-18 variants and corresponding TL-18 immunocytokines.
PD-1 expressing cell line generation: Briefly, KG-1 cells were transduced using lentiviral particles carrying the human PD-1 gene (PDCD1 NM_005018; Origene, CAT #: RC210364L3V) at a MOI (Multiplicity of Infection) of 30. Spinfection was performed at 1260 g during 90 min at 37° C. in the presence of 5 μg/ml of Polybrene and 10 mM of HEPES in complete culture media (RPMI, 10% FBS, 1% L-Glutamine). […]
IFNγ release was assessed in PD-1 positive (transduced) KG-1 cells, as well as in the parental PD-1 negative cells. […] The lowest concentration assessed was 0.05 fM. After incubation, IFNγ release was measured using the LEGENDplex custom human mix and match KIT (Biolegend LEGENDplex™ Human IFN-γ Capture Bead B5, 13×#740942, LEGENDplex™ P 1 Essential Immune Response Panel Detection Abs, #740931, LEGENDplex™ Buffer Set A #740368). […] Fluorescence measurements were done with a Quanteon Flow Cytometer from Acea Biosciences. For analysis, MFI values (median fluorescence intensity) were exported and plotted against concentrations used. The EC50 values (half maximal effective concentration) were calculated based on a variable slope and four parameter analysis using GraphPad PRISM software version 9.

B1: SEQ ID NO: 30: IL-18 polypeptide: E6K, V11I, C38A, K53A, T63A, C76A, C127A (protein)
chain: YFGKLKSKLSIIRNLNDQVLFIDQGNRPLFEDMTDSDARDNAPRTIFIISMYADSQPRGMAVAISVKCEKISTLSAENKIISFKEMNPPDNIKDTKSDIIFFQRSVPGHDNKMQFESSSYEGYFLAAEKERDLFKLILKKEDELGDRSIMFTVQNED
- IC50 [1]: 488 nM
- PD-1^pos/PD-1^neg EC50 ratio [2]: 1.336
